We go through five molecules from patent publication US20140086913A1 (Gilead, published 2014).

The target in assay [1] is DDR1 endogenously expressed on human cancer cell lines (T47D, HCT-116, A431) (human) (UniProt Q08345). Put plainly: flow cytometry, T47D cells. On the technique in general: Flow cytometry measures light scatter and fluorescence of single cells or particles in a stream.
For assay [2], the target named is DDR1 with a ProLink Tag (PK) in engineered U20S cells (DiscoveRx), Q08345. Briefly: cell-based or functional assay.
The target of assay [3] is human DDR1 (isoform B) stably expressed on HEK293 cells (human) (UniProt Q08345). Put plainly: flow cytometry, HEK293/hDDR1.
Assay [4] deals with DDR1 endogenously expressed on human cancer cell lines (T47D, HCT-116, A431) (human) (UniProt Q08345). Briefly: flow cytometry, HCT116 cells.
The target of the next assay is T1, mouse ECD-DDR1-Fc (mouse; human, UniProt Q03146 22-414).
T1 construct: also called mouse DDR1-ECD; wild-type mouse DDR1-ECD; not shown: human IgG1 Fc of the vector pFuse-hIgG1-Fc1 (Invivogen)
T1 sequence: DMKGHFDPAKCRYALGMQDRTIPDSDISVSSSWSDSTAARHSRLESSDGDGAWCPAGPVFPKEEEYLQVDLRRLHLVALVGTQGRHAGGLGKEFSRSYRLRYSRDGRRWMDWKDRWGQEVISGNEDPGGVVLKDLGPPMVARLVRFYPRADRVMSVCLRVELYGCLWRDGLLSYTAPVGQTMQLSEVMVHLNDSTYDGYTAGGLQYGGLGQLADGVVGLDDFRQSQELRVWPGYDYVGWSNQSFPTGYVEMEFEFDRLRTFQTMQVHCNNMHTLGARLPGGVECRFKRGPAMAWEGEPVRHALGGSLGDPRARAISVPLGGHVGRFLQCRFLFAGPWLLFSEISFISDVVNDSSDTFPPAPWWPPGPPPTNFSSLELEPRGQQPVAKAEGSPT
Briefly: ELISA, coated antigen. How it is done: (§1) In this study, ELISA was used to determine the affinity of murine anti-DDR1 monoclonal antibodies to the extracellular domain (ECD) of either human or murine DDR1. A 96-well MaxiSorb ELISA plates (Nunc) were coated with 2 μg/mL of one of three purified recombinant tagged proteins: human ECD-DDR1-His protein, human ECD-DDR1-Fc, or mouse ECD-DDR1-Fc overnight at 4° C. The next day, the plates were blocked with 5% bovine serum albumin (BSA, Jackson Immunoresearch) prior to the addition of serially diluted anti-DDR1 monoclonal antibodies. Antibodies were incubated for 1 hr at room temperature. The binding of antibody to the antigen was detected by incubating samples with anti-mouse IgG-HRP (horse radish peroxidase) secondary detection antibody (Jackson Immunoresearch) for 1 hr. After a washing step, 3,3′,5,5″-tetramethylbenzidine (TMB) reagent was added for HRP to produce a colorimetric signal. The reaction was stopped by addition of 1M hydrochloric acid after 2 minutes and measured for absorbance (optical density, OD) at 450λ on a Molecular Devices plate reader. The OD values were plotted against antibody concentration and fitted using a using 4-parameter logistic equation in SoftMax software (Molecular Devices). The apparent affinity constant (KD) was taken from the C-parameter of the equation (y=(A−D)/(1+(x/C)̂B)+D). The apparent affinity constants were summarized (in some cases shown as average values) in Table 10 below. Lower value indicates higher binding affinity of the antibody to the antigen.
In general terms: In an ELISA, binding on a coated surface is turned into a signal by an enzyme label.

Assay [5] deals with DDR1 endogenously expressed on human cancer cell lines (T47D, HCT-116, A431) (human) (UniProt Q08345). Put plainly: cell-based or functional assay.
Assay [6] deals with T2, DDR1ECD-Fc (R&D Systems, Catalog #2396-DR) (human, UniProt Q08345 21-416).
T2 construct: range 21-416; construct as described for the bought immunogen; also called human ECD-DDR1-Fc; Fc-ECD-DR1; not shown: human IgG1, Pro100-Lys330
Briefly: ELISA, coated antigen, apparent KD. The procedure:
as §1

Assay [7] has as its target T3, human ECD-DDR1-His protein (human, UniProt Q08345 21-416).
T3 construct: also called huDDR1-ECD-His; DDR1ECD-6Xhis; not shown: His tag
Briefly: ELISA, coated antigen, apparent KD. The procedure:
as §1

The target of assay [8] is T4, human DDR2 stably expressed on HEK293 cells (human, UniProt Q16832 22-855).
T4 construct: whole, on cells; also called hDDR2
T4 sequence (looked up): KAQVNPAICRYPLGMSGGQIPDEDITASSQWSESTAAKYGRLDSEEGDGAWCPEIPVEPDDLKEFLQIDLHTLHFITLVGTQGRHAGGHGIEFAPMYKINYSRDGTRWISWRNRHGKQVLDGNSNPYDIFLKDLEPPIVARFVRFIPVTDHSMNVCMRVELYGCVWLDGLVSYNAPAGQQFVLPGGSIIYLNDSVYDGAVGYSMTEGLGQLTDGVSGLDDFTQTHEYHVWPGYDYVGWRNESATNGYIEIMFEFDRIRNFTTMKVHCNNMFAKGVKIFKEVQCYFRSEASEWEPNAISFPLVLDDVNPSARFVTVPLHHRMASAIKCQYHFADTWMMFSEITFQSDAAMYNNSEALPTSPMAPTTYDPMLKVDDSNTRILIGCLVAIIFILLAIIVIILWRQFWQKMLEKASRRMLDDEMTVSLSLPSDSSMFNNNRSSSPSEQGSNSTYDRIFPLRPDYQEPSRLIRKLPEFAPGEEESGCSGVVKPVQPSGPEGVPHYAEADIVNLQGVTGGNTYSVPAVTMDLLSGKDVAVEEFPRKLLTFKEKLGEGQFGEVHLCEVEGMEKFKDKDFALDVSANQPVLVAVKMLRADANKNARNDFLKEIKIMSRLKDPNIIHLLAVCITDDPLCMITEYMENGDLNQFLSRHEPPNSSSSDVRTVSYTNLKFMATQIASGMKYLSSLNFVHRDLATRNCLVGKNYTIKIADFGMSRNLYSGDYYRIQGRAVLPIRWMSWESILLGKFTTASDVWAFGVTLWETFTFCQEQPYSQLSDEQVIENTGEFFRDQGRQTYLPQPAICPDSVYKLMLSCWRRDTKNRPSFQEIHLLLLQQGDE
Put plainly: flow cytometry, HEK293/hDDR2. The procedure:
Additional monoclonal antibodies were obtained from individual hybridomas in Example 1 and were characterized for their properties.
Cells were cultured in DMEM with 10% FBS and 0.8 mg/mL hygromycin. When cells reached 60-80% confluence, they were centrifuged at 1,200 rpm for 5 minutes, suspended in FACS buffer (1×PBS, 1% BSA), and aliquoted into a 96-well plate at 1×10⁶ cells per well. The anti-DDR1 monoclonal antibodies or appropriate isotype controls at 2 μg per 1×10⁶ cells were added and incubated at 4° C. for 1 hr. The cells were washed twice with FACS buffer then stained with the anti-IgG-PE secondary antibody at 10 μL per well at 4° C. for 1 hr. The cells were washed again and measured for the MFI values or signals using flow cytometry (LSR Fortessa instrument, BD Biosciences). Background MFI signals from vector-only cells (i.e. no DDR1 or DDR2 expression) was subtracted from those of the cells treated with antibodies. Higher MFI values or signals indicated increased binding or specificity of the anti-DDR1 antibodies to the DDR1 on the cell surface.

For assay [9], the target named is DDR1 endogenously expressed on human cancer cell lines (T47D, HCT-116, A431) (human) (UniProt Q08345). Put plainly: cell-based or functional assay. This is another data set of the same source.
For assay [10], the target named is T2, DDR1ECD-Fc (R&D Systems, Catalog …). Put plainly: ELISA.
For assay [11], the target named is human DDR1 (isoform B) stably expressed on HEK293 cells (human) (UniProt Q08345). Briefly: flow cytometry, HEK293/human DDR1, normalized to empty-vector cells.

Like-named read-outs stand apart in the source and are kept apart here.

Sequence of human DDR1 (isoform B) stably expressed on HEK293 cells (human) (Q08345 19-913): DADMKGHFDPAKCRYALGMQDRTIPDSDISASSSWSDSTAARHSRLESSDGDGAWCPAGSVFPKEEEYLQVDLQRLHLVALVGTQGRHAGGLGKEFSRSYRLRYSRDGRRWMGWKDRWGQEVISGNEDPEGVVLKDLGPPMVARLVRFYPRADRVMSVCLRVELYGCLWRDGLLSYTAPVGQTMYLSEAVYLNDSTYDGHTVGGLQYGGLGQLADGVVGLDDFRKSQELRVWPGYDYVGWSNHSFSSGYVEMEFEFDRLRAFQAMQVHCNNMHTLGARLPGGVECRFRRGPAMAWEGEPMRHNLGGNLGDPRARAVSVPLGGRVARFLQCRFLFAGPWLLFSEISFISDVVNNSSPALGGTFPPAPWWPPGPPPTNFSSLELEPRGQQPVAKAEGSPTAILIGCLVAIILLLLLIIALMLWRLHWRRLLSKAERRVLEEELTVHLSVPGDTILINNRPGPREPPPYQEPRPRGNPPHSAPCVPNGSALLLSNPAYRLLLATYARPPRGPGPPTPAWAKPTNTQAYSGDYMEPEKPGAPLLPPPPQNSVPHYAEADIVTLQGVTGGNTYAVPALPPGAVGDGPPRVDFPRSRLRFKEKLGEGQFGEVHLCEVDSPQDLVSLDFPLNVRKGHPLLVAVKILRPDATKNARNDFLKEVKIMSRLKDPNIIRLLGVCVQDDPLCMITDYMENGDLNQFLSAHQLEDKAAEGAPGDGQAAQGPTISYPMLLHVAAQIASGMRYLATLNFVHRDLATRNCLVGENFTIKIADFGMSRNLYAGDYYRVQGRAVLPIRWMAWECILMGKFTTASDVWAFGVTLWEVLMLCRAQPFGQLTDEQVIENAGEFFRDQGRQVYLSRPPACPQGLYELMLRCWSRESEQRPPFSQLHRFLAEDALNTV

B1: AB2029 (antibody, V domains shown)
VH: QVLLRQSGPGLVQPSQSLSITCTVSGFSLTTYGVHWVRQSPGKGLEWLGVIWSGGSTDYNAAFISRLTISKDNSKSQVFFKMNSLQANDTAIYYCARYYSGSSLYFAMDYWGQGTSVTVSS
VL: NIVMTQTPKFLLVSAGDTVTITCKASQSVSNDVAWYQQKPGQSPKLLIYYASNRYTGVPDRFTGSGFGTDFTFTISTVQTEDLAVYFCQQDYSSLTFGAGTKLELKR
notes: mouse hybridoma mAb
As for B1, the MFI in assay [1] is 3560 MFI; in assay [3], 11700 MFI; in assay [4], 1010 MFI; in assay [8], 263 MFI. In assay [2], the Mean EC50, DDR1 Tyr513 phosphorylation assay (U20S) amounted to 4.9 nM. In addition, in the assay with mouse ECD-DDR1-Fc, the binding result is recorded as “no binding”. The same molecule displayed an EC50, DDR1 phospho-specific ELISA (T47D) in assay [5] of 0.55 nM. The same molecule showed a Maximal inhibition, DDR1 phospho-specific ELISA (T47D) in assay [5] of 100%. The molecule further yielded an NPI of cluster formation at 66 nM (A431 cells) in assay [5] of 100%. For the same molecule, the Kd in assay [6] stood at 0.302 nM; in [7], 0.397 nM.

B2: AB2021 (antibody, V domains shown)
VH: EVKLVESGGGLVKPGGSLNLSCAASGFTFSNYAMSWSRQTPEKRLEWVASISSGGNTYYPDSVRGRFTISRDNARNILYLQMSSLRSEDTAMYYCAREPGTYNWYFDVWGAGTTVTVSS
VL: DIVMTQSQKFMSTSVGDRVSVTCKASQNVGTNVAWYQQKPGQSLKALIYSASYRFSGVPDRFTGSGYGTDFTLTISNVQSEDLAEYFCQQCNSYPLTFGAGTKLELKR
notes: mouse hybridoma mAb
For the molecule B2, the MFI in [1] was 5010 MFI; in assay [3], 15800 MFI; in [4], 1390 MFI; in [8], 92 MFI. Further, in [2], the Mean EC50, DDR1 Tyr513 phosphorylation assay (U20S) stood at 7.71 nM. In addition, in the assay with mouse ECD-DDR1-Fc, the binding result is recorded as “no binding”. Also, in assay [5], the EC50, DDR1 phospho-specific ELISA (T47D) turned out to be 2.26 nM. Further, in [5], the EC50, cluster formation assay (A431 cells) worked out at 18.5 nM. The molecule further had a Maximal inhibition, DDR1 phospho-specific ELISA (T47D) in [5] of 100%. In assay [5], the NPI of cluster formation at 66 nM (A431 cells) amounted to 106%. The Kd came out at 0.252 nM in [6] and 0.153 nM in assay [7].

B3: AB2034 (antibody, V domains shown)
VH: QVQLKESGPGLVAPSQSLSITCTVSGFSLTSYHIHWVRQPPGKGLEWLVVIWSDGSTTYNSALKSRLSISKDNSKSQVFLKMNSLQTDDTAIYYCARTGNFYAMDYWGQGTSVTVSS
VL: SIVMTQTPKFLLVSAGDRVTITCKASQSVSNDVVWYQQKPGQSPKLLIYYASSRYTGVPDRFTGSGYGTDFTFTISTVQAEDLAVYFCQQDYSSPYTFGGGTKLEIR
notes: mouse hybridoma mAb
Take B3: the MFI amounted to 4370 MFI in [1], 11400 MFI in assay [3], 1060 MFI in [4] and 175 MFI in assay [8]. In [2], this molecule showed a Mean EC50, DDR1 Tyr513 phosphorylation assay (U20S) of 5.2 nM. Besides, the binding result with mouse ECD-DDR1-Fc is on record as “no binding”. Further, the EC50, DDR1 phospho-specific ELISA (T47D) in assay [5] is 0.63 nM. In assay [5], the EC50, cluster formation assay (A431 cells) turned out to be 7.87 nM. In [5], this molecule showed a Maximal inhibition, DDR1 phospho-specific ELISA (T47D) of 100%. In assay [5], this molecule had an NPI of cluster formation at 66 nM (A431 cells) of 119%. For the same molecule, the Kd in [6] was found to be 0.256 nM; in assay [7], 0.311 nM.

B4: AB2065 (antibody, V domains shown)
VH: EVMLVESGGGLVKPGGSLKLSCAASGFTFSNYAMSWVRQTPEKRLEWVAKTSSGDTYTYYPDSVKGRFTISRDNAKNTLYLQMTSLRSEDTAIYYCARQDYYGITPWFFDVWGAGTTVTVSS
VL: ENVLTQSPAIMSASPGEKVTMTCRASSSVSSIYLHWYQQKSGASPKLWIYSTSNLASGVPARFSGSGSGTSYSLTITSVEAEDAATYYCQQYSGYPLITFGAGTKLELKR
notes: mouse hybridoma mAb
For the molecule B4, the MFI in assay [1] came to 4400 MFI; in [3], 3560 MFI; in [4], 2480 MFI; in assay [8] it was 353 MFI. Besides, the Mean EC50, DDR1 Tyr513 phosphorylation assay (U20S) in assay [2] was found to be 25.7 nM. Also, the EC50, DDR1 phospho-specific ELISA (T47D) in assay [9] stood at 0.35 nM. Further, the Maximal inhibition, DDR1 phospho-specific ELISA (T47D) in assay [9] was found to be 100%. Also, in assay [9], the NPI of cluster formation at 66 nM (A431 cells) is 15.8%. Moreover, the binding result in the assay with mouse ECD-DDR1-Fc is “no binding”. Further, the Kd in [6] came out at 0.234 nM; in assay [7], 0.197 nM.

B5: AB2079 (antibody, V domains shown)
VH: EVMLVESGGGLVKPGGSLKLSCAASGFTFSNYAMSWVRQTPEKRLEWVAKTSSGDTYTYYPDSVKGRFTISRDNAKNTLYLQMTSLRSEDTAIYYCARQDYYGITPWFFDVWGAGTTVTVSS
VL: ENVLTQSPAIMSASPGEKVTMTCRASSSVSSIYLHWYQQKSGASPKLWIYSTSNLASGVPARFSGSGSGTSYSLTITSVEAEDAATYYCQQYSGYPLITFGAGTKLELKR
notes: mouse hybridoma mAb
With B5, the MFI turned out to be 6130 MFI in assay [1]; 14300 MFI in assay [3]; 1730 MFI in assay [4]; 14300 MFI in [11]; 326 MFI in [8]. The same molecule had an EC50, DDR1 phospho-specific ELISA (T47D) in assay [9] of 0.13 nM. This molecule also returned an NPI of cluster formation at 66 nM (A431 cells) in assay [9] of 0.5%. The Kd came out at 0.088 nM in assay [10], 0.0883 nM in [6] and 0.07 nM in [7]. The binding result with mouse ECD-DDR1-Fc is reported as “no binding”.
